Data from paper PMC9135701.

Biological target: spGFP_(1-10/11)-MSP1D1
Test: SEC; purified scaffold protein without lipids; Superose 6 Increase 10/300 GL, 50 mM Tris-HCl pH 8, 100 mM NaCl, 5% glycerol; monomer (intramolecular complementation) against dimer (intermolecular complementation)

Substance: spGFP_(1-10/11)-MSP1D1
- percent dimeric: 30%
- stoichiometry N: 2
